# Positions count from the first letter of the chain named.
# Tests used:
# Assay in all cases: cAMP activity assay (pCRE β-galactosidase reporter), transfected HEK293T cells
# Type in all cases: cell-based
# RXFP1 A68^Δ = biological target: T1, RXFP1 A68^Δ (Homo sapiens, UniProt Q9HBX9, DEL90-90); details: construct A68^Δ, ±s.e.m.
# T1 construct: transiently transfected human embryonic kidney (HEK) 293T cells expressing full-length RXFP1 and mutants; expressed in transfected cells; host or cells: HEK293T
# T1 sequence (Q9HBX9 with tags, fused parts or gaps DEL90-90 limits assumed): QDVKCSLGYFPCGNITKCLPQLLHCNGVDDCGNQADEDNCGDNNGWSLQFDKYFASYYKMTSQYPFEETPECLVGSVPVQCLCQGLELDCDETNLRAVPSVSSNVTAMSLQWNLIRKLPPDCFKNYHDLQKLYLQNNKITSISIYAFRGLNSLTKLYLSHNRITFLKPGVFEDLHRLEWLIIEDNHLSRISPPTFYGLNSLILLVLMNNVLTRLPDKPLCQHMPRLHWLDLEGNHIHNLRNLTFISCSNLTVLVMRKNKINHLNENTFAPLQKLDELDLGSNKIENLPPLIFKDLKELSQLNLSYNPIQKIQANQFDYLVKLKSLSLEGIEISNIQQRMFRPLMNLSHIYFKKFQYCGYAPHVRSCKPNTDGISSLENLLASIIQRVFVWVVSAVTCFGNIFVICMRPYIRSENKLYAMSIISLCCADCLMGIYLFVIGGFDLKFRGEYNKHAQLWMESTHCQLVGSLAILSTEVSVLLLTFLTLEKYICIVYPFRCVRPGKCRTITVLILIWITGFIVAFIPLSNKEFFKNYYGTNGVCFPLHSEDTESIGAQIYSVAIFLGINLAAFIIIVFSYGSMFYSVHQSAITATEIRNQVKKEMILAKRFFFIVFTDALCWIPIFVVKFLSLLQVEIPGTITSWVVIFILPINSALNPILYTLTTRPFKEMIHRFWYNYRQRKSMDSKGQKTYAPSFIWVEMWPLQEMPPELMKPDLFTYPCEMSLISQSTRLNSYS
# In short: (§1)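 Receptor signalling is measured as CRE-driven β-galactosidase activity after H2 relaxin exposure, using a colorimetric substrate read at 570 nm. Values are normalised to 5 μM Forskolin, pooled from at least three independent triplicate experiments.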
# RXFP1 F54A = biological target: T2, RXFP1 F54A (Homo sapiens, UniProt Q9HBX9, F76A); details: construct F54A, ±s.e.m.
# T2 construct: cells expressing full-length RXFP1 and mutants; expressed in transfected cells; host or cells: HEK293T
# T2 sequence (Q9HBX9 23-757 F76A limits assumed): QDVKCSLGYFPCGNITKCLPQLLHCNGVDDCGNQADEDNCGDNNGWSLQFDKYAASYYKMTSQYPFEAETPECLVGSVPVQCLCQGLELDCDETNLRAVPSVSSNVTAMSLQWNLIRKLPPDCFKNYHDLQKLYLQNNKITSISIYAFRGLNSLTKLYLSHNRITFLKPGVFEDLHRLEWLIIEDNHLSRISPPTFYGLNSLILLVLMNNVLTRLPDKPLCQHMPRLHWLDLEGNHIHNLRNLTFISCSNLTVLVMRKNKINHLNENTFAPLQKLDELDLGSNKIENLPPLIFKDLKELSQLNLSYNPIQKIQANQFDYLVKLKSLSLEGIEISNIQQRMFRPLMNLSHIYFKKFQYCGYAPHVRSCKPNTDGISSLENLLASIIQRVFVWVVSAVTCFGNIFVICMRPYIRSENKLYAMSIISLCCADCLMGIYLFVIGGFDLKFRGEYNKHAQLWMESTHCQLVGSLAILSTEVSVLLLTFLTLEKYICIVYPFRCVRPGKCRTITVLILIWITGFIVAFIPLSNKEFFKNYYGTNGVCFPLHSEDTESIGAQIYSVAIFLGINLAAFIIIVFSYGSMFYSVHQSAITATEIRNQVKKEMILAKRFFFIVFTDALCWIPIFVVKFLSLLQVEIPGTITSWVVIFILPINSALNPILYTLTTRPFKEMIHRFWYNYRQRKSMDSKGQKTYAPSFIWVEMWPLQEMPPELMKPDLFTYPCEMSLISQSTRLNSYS
# In short: as §1
# RXFP1 A55L = biological target: T3, RXFP1 A55L (Homo sapiens, UniProt Q9HBX9, A77L); details: construct A55L, ±s.e.m.
# T3 construct: cells expressing full-length RXFP1 and mutants; expressed in transfected cells; host or cells: HEK293T
# T3 sequence (Q9HBX9 23-757 A77L limits assumed): T2 sequence (Q9HBX9 23-757 F76A limits assumed) with A54F, A55L
# In short: as §1
# [1] = percentage of maximum response to 5 μM Forskolin
substance,measurement,setting,value
H2 relaxin: two-chain 6-kDa peptide hormone structurally related to insulin; recombinant human gene-2 H2 relaxin provided by Corthera,H2 relaxin pEC50,RXFP1 A68^Δ; cAMP reporter,11.18±0.02 (3)
same,H2 relaxin Emax,RXFP1 A68^Δ; [1],93.78±3.19 (3) %
same,H2 relaxin pEC50,RXFP1 F54A; cAMP reporter,10.23±0.13 (4)
same,H2 relaxin Emax,RXFP1 F54A; [1],104.89±10.48 (4) %
same,H2 relaxin pEC50,RXFP1 A55L; cAMP reporter,10.75±0.17 (5)
same,H2 relaxin Emax,RXFP1 A55L; [1],123.59±8.51 (5) %

# Reference: publication PMC4837482, “The complex binding mode of the peptide hormone H2 relaxin to its receptor RXFP1” (Nature Communications, 2016)
